From US7049292 (dated 2006)

target: HLA-DR4 (human); test: competition

Binder	IC50
GSLQPLALEGSLQKRGIV [preproinsulin C19-A3]	500 nM
DLQVGQVELGGGPGAGSLQPLALE [preproinsulin C4-C27]	33000 nM
GGGPGAGSLQPLALEGSLQK [preproinsulin C13-C32]	5000 nM
QPLALEGSLQKRGIVEQ [preproinsulin C22-A5]	400 nM
